Test: soluble on expression in E. coli; label from the status in PepcDB or PDB records

| Sequence | soluble on expression in E. coli |
| --- | --- |
| RSFDTKQEHGISPKPTYSRIKANYFSFGYFVGRVLPYQLFDLSRIPAFKQPAPSKIGQGSVQNIVLIMGESESAAHLKLFGYGRETSPFLTRLSQADFKPIVKQS | not soluble |
| MNNSSNADSQEGSTSAQKQKTANPSESRPFVLKKWNALAVWAWDVECDTCAICRVHLMEECLRCQSEPSAECYVVWGDCNHSFHHCCMTQWIRQNNRCPLCQKDWVVSRTSK | not soluble |
| MGSDKIHHHHHHMKVVFLICNPAAGGGRAGKIWNRVEDLLKKHGIDHKFAFTERPGHAMEISKKAFKEGYRRIAAFGGDGTVNEMVNGIFLNGYDLREVVFGWIPFGSGKDWARTIGVPLEIEEAIKMLKDGKEFVQDLGVGEYEKASGEIEKRAFVNVAGLFFDGFVTYRTNLLKRKNRVSYFSRIFSSIIEYDPPTARIQIDEKVWEKRVFSMNVGICKYNGGGMNQLPHAVPDDGLLAVTVINDIGKLRILANLHRVFNGKLLEHPGVEGYQAKKVVVEFQRDEPVEFDGESFWAKKIFFSIIPGVIRVLVKK | not soluble |
| MNPITNIKNQNRMNERELSLGYAGDLKKSWHQTYKDSAWIYIGGLSYALSEGDVIAVFSQYGEVMNINLIRDKDTGKSKGFAFLCYKDQRSTILAVDNFNGISLHKRMIRVDHVEEYKVPKYKEDADDETKRLWEEGCAPKPVMREAAPMEVQEQRIKKAKEVLLDIGDVDEELLKKIKKDKKKAKKEKKREKKRAKKIRKLEKKAARDPDGDWNNKAKLIDKVVAEDDLYGENKHFDFGKKKEVEEVKHNPRPDFEKADWRDIEIWKVIREREKAEKAARGETSEAWGPEDHYVSKRYQGR | not soluble |
| MTESDLRTHATEIHEQFSDQLEIDVDDVIERLDTLVNDYQVPISEARRSVVNTYLDEAGMDRDQLGGGDGGGNEQVNVADVDAPEEWVDVRATVVELWEPRADAVAQVGLLGDETGTIKFTKWSKSDLPSLEEGKSYALRNVVTDEYQGRFSVKLNRTTTIEELDEAIEVGDDSVEADGALVDIQSGSGLIKRCPEDDCTRVLQNGRCSEHGEVEGEFDLRIKGVLDDGEEVTEVIFDEDATEELTGIALEEAKEMAMDALDTTVVADEMRQKILGRYYRVRGPTFGRYLLADEQERLTGAVDADEILIKARSILEHHHHHH | not soluble |
| ATQGRLRRRPEGARVPSARRGRPRARWRAPQNNPEVDSIMAELKVEAPASVDWQKRCLTLETQLFRFRLQASKIRELLADKMQELEQRLLEAEQRAENAETQVGVMEEKVKLSNLKNVDSEGSLHRKYQELLKAIKGKDELISQLEAQLEKQKQMRAEEAKTVQEKAAKIKEWVTLKLAKLEMENQHLKSHNQRLVEQVGSLQDALEAIQIAPSRKLLVPPYGAAEQDSVPSEPGIQPMGQDSGSQAQGLKAAVLAPSPGALQSKDSVSEAASPLEDSSSSTVHSGETVEAKPLQPHLGRESPPHQPCMKLLTFRCSSASWGEGLVTAQRGMLPGTKTSAREGGPGSSLTLPKVRAPGTPRDSIQLAKRHHSQPQVGHGHFGRVVNIETEAFSALHPSGLPELESRARSREEPEKMEMEEPPPAGKNEERESPKALGAELEEVELGNKPPTPPLHQFSSWESRIYAVATSGMRLSDMSPRSNTACCASSPPALVSPGSFSGLVYKNVTVPVYTALKGRATQISNMPFMDESSGSDDDCSSQASFRISVPSSESRKTSGLGSPRAIKRGVSMSSLSSEGDYAIPPDACSLDSDYSEPEHKLQRTSSYSTDGLGLGGESLEKSGYLLKMGSQVKTWKRRWFVLRQGQIMYYKSPSDVIRKPQGQVDLNSRCQIVRGEGSQTFQLISEKKTYYLTADSPSLLEEWIRVLQSLLKVQATGPPALLRGGTKPTVKGWLTKVKHGHSKVVWCALVGKIFYYYRSHEDKRPLGCLPVRDAHIEEVDRSCDSDEDYEAGGTRRLLSSHCTLVIHPTEHSPTYLLIGTKHEKDTWLYHLTVAAGGSSAKVGTAYEQLIGKLMDGEGDPDSPLWRHPMLCYSKDGLYASLTTLPSEALQTEALKLFKSCQLFINVPVEAASVDYHVSLAQTALQVCLVHPELQSEIYCQLMKQTSCRPPQKYSLMQCWQLLALCAPLFLPQHHFLWYVKQQLQRHADPRSETGQYATYCQRAVERTLRTGEREARPSRMEVVSILLRNPFHHSLPFSIPVHFTNGTYHVVGFDGSSTVDEFLQRLNQEIGMRKPSHSGFALFTDDPSGRDLEHCLQGSVKICDAISKWEQAMKELHPGKSEGGTRVVKLMYKNRLYFRSQVKGETDRERLLLASQTSREIVAGRFPINKELALEMAALMAQVEYGDLEKPALPGPGGTSPAKAQHLLQQVLDRFHPRRYRHGAPAEQLRHLADMLTTKWATLQGCSPPECIRIYLTVARKWPFFGAKLFAAQPAQLSSKENALVWIAVNEDGVSILDHNTMQVHITYPYSSVTTFGGCRDDFMLVIRSIPDKSSGKSHIEKLIFRMAAPKIAEATFIMASYMNHCTTTVNPPTNPPGACQLWELDGRQFFSSVSCATKGPTLL | soluble |
| FNRGGYNFGKSVRHVVDAIGSVAGIRGILKSIR | soluble |
| MARKEAKMLYIFDLGNVIVDIDFNRVLGAWSDLTRIPLASLKKSFHMGEAFHQHERGEISDEAFAEALCHEMALPLSYEQFSHGWQAVFVALRPEVIAIMHKLREQGHRVVVLSNTNRLHTTFWPEEYPEIRDAADHIYLSQDLGMRKPEARIYQHVLQAEGFSPSDTVFFDDNADNIEGANQLGITSILVKDKTTIPDYFAKVLC | soluble |
| MTDDKDVLRDVWFGRIPTCFTLYQDEITEREAEPYYLLLPRVSYLTLVTDKVKKHFQKVMRQEDVSEIWFEYEGTPLKWHYPIGLLFDLLASSSALPWNITVHFKSFPEKDLLHCPCKDAVEAHFMSCVKEADALKHKSQVINEMQRKDHKQLWMGLQNDLTSFGPSTGNSWNTLQKKMDFVISLLEYIRPQLNGLSFRSCSVLWPQMDSCIPLEIS | not soluble |
| MSLRGGETLEYDPDVLDENVEIEVGDVVEIKKFEKTEVYVSGYVSRPGVYEISPKENVTLEKLLSMAGGIKGTLEEVDSIVVTRDGSVITLSPNNLDFSVKPGDVVNVKEFVPKKAYVLGYVRNPGLYTFGKNEAFTLRNLIAKAGGFVDEGQVVSVKVAGKEYSEGHHHHHH | soluble |
| MNRIAKLLKTKYPIVQGPMAGITLGEFASTVSEAGGLGVIASAGLSPEKLKEEIEKVKNRTDKPFAVNIPIYQPGSEKNLETALKADVGIIYTSAGSPEKYTERVKESGAKVIHKVSRLKEGLKAEKAGVDAVVAMGFEAGGIIGRSGVTSFCLIPELADNLSIPVVAAGGIADERGFAAALILGAEGVEIGTRLLATKECPVPESIKQAILKATCDSTMVIESPVVMRALKPELSGDSENPALGGQVSGLIKEILTVEEVIRKIAEGLNKAKF | not soluble |
| MLQPILSISGKSGLFRLVSRGKNTLIVEALDTKRRTPTYPSDRVVSLGDISIYTIEDDVPLPEVMETIYRKNEGKQLDAPALTKDNDSLRAFFGEVLPEYDVDRVYPSDIRKIISWYNLLVDNGFTTFLSDKKPAEEETTEKE | not soluble |
| MGSDKIHHHHHHPEQIEKYPSIYPDYIGVTIPATIAPMNFSYTDTSYERIDVIVKGHQGKEVHINAKHVNFPEKEWKQLLNSNQGDSLLFTVSIKQKGKWSTYKPFPMYISPHPIDYGLVYRKIAPGYEVYSRMGIYERDLSSHKERPLVENTLVKGMCVNCHAFNRTDPSHFSLHIRGTHGATFMRTGNKDEYLNTKTDQTIAACVYPYWHPGGEYIAYSTNNTRQSFHTVKDERVEVLDLESDVVVYHPADHHLLLCDSLQKKDRFETFPAFSPDGRTLYFCSAEAKKIPEEYKEIRYNLCSIDFDPSTGTFGSRIDTLVNAEALGKSVSFPRPSYDGKYIMFTLSDYGNFSIWHKEANLWLLDLTSGDLRELSEVNSDDTESFHNWSSNSRWFVFSSRRGDGLYTRLYLASMDENGKISKPFLLPQEDPETYYDRSVYSYNVPDFVNAPILLDTKVFEKRITSKERIQVQVGN | not soluble |
| MTFLIPAYNEEKSIGPLIDRIKMLCPDSEIIVVDNNSSDRTSEIATSRGVRVIFEGKQGKANAMVAAFRNTRTEYAVMMDADLTYLPDDSRVLVEVLKAEGADVVLGSRLNGEKEDGAISRINTVGNHILSFTASILYSPVSDVCTGHWAFNRRAIRHILEEGLNYSGFELEAEMFSKLARAGLKIVEVPITYRKRSDEPKLSSFTDGFKIFRTLVLERLRLEHHHHHH | not soluble |
| MGSDKIHHHHHHMPVLPVSSYKGSGPLANGHVQTMFPVLFRPMPVVEYHRQRLETPDGDFLDVDFSSAAAAAQSESIAVISHGLEGHSRRRYVQGMARVLNARGWDAAAWNFRGCSGQPNRLPRMYHSGDTQDLHTVVTACAQKGYRRILLVGVSMGGNQILKYLGEDPDRVDSRVCGAVVFSVPCDLVGAAQVLGRPQNSVYMRYFLRTLRQKIKAKHAMYPDTIQMDGLDSIRTFAEFDDRYTAPLHGFSGALDYWTKSSCRQFLSSVRVPALLVNALNDPFLSASCYPYREARQSGSLFFETTVTGGHVGFVQFNRQNIYWSEERLLSFMDEQGL | not soluble |
| MSDVSLKLSAKDIYEKDFEKTMARGYRREEVDAFLDDIIADYQKMADMNNEVVKLSEENHKLKKELEELRLRVATSRPQDNKSFSSNNTTTNTSSNNVDILKRISNLEKAVFGK | not soluble |
| MEVLKLQLRQWQAEKLGEAINALKHGKTLLLNAKPGLGKTVFVEVLGMQLKKKVLIFTRTHSQLDSIYKNAKLLGLKTGFLIGKSASCIYAQGDEEPDEINCSKCRLKDKIKTIEDKEPSKLIEEFKDAVDYCPYYSLRANLKDKDVIAMTYPYLFQKPIRNSVFCNKDDCLKLEDYLIVIDEAHNLLEADKWFTRKISRKMLERALKEIEIVERLNRIDAKKVKDYINLLIDYMSKLIKDGRCHELSLMPLPDRETNGELIVVTRAYLNIDEGPVKKSSLKSLLKFVEMKGDLYNCNGSLVKVPSDVNQLIEDALNVKTFKVLMSGTLPESLTLTNSYKIVVNESYGRGEYYYCPNVTSELRKRNSNIPIYSILLKRIYENSSKSVLVFFPSYEMLESVRIHLSGIPVIEENKKTRHEEVLELMKTGKYLVMLVMRAKESEGVEFREKENLFESLVLAGLPYPNVSDDMVRKRIERLSKLTGKDEDSIIHDLTAIVIKQTIGRAFRDPNDYVKIYLCDSRYREYFADLGISEKEIKLFA | soluble |
| MGSDKIHHHHHHMSTVQDASSVGSLFGAEAAKTSKSGSSDTQDRFLSLLVAQMKNQDPLNPLDNAEVTSQMAQLSTVEGIENMNKSLEALASSMGASQMSQAANLIGHAVLVPGNAVGPGQLENLMGFELTRPADKVTLDIHDAGGNLVRSVDLGPRDAGVNVVAWDGLTGSGAVAPAGAYSFKVSAVQGGQAQSSIALNVGLVNSVSQNSEGVQLNLAGNGSVGYADIREIF | not soluble |
| SLKYCIHNTRLIIGIADRVIENGSILFDQDKILKVSAHSITDADVFIDGTTFSVLPGLIDVHVHLGMDCSVDPFDTMENTEDAFTSFIAYKQGLQFLRAGITTVRNLGTKNNVDIIYKKAVESGLVIGPRVYAAGQPLIMTGGHGQPMGTEVDGKDEVIKATRQRIKEGADLIKIMATGGVLTKGNHPGAVHFNVDELKCICQEAAKASLTTAAHAIGLNGVKNAIKAGVNTIEHGYYLDKETVDTMRDLGIYLTPTLLAPTLLQKNSEHIPQHMIDKIEEIEKEHRKSFRLALERGVKIIAGTDAGTPFNNPGQLVEELKIMLEEGMTTAQAIESATYLGAKCLKVDSLIGSLEEQKLADLIVVKGNPLEDISNLKNIQHVFKGGVRLYPDQIH | soluble |
| MSLDVSVSATGHDNVTARHDSTLELTTDDFLTPAGDCILGIDADCSPAAFSDAFVAACQDAAATITLVLDTPQHRDEITGSGHPDLTFTNDRSMVGRTSTYVDDRTVFVDADKAAADVDREMVAALADGAPLTATLRVDEGHHHHHH | soluble |

Source: the DeepSol protein solubility set
